One block for each binder: values may come before it.
What was measured:
[1] = molecular target: T1, human CEA (CEACAM5) on cells (MKN45 cells; MV3 cells engineered to express human CEACAM5) (human, UniProt P06731 35-685); assay: flow cytometry on MV3 cells modified to express CEA
T1 sequence: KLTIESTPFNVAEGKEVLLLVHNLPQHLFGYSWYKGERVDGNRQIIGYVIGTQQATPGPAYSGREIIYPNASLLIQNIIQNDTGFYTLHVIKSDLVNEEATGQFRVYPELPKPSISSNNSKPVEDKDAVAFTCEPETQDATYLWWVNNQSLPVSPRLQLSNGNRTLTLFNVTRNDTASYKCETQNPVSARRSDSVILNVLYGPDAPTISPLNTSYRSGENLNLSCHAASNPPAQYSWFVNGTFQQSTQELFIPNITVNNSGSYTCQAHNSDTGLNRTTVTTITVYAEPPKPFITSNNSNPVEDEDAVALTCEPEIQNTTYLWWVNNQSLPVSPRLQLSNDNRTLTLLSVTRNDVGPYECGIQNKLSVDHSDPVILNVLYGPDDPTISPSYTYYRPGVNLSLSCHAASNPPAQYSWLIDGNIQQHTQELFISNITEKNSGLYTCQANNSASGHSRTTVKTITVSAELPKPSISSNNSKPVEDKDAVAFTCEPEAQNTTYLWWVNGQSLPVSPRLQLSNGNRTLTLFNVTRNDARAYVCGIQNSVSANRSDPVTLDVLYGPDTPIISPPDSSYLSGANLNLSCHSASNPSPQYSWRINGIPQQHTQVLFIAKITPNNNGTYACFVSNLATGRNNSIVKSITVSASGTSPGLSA

[2] = molecular target: T2, biotinylated huCD28-Fc (dimeric CD28-Fc construct with a monovalent biotinylated avi-tag) (human, UniProt P10747 19-152, biotinylated at the C-terminal avi tag); assay: SPR, ProteOn XPR36, huCD28-Fc immobilised, bispecific as analyte
T2 construct: not shown: hum IgG1 Fc fragment with hole and PG-LALA mutations; hum IgG1 Fc fragment with knob and PG-LALA mutations

[3] = molecular target: T3, Hu N(A2-B2)A-avi-His (human, biotinylated at the avi tag (Example 2.2)); assay: SPR, ProteOn XPR36, antigen on NLC chip, bispecific as analyte
T3 construct: also called hu N(A2-B2)A-avi-His B; CEACAM5-based antigen
T3 chain: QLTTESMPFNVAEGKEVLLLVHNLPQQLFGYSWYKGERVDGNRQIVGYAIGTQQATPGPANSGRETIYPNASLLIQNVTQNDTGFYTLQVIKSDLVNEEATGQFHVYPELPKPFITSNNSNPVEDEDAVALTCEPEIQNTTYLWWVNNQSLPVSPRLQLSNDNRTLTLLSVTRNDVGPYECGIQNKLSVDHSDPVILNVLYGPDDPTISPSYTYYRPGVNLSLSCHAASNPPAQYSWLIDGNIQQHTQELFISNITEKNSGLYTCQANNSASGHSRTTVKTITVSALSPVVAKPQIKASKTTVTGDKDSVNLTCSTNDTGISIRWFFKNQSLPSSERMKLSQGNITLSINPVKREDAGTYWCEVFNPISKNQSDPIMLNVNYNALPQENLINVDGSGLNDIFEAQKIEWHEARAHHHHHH

[4] = molecular target: T4, human BCMA on IM-9 cells (human, UniProt Q02223 1-184); assay: flow cytometry on IM-9 cells
T4 construct: also called B-cell maturation antigen
T4 sequence: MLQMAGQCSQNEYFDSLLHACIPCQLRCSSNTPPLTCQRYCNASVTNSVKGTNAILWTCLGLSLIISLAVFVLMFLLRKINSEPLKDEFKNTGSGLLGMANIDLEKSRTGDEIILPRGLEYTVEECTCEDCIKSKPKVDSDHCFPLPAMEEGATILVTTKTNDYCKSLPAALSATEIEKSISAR

[5] = molecular target: T5, human CD28 on CHO cells (parental cell line CHO-k1 ATCC #CCL-61, modified to stably overexpress human CD28) (human, UniProt P10747 19-220); assay: flow cytometry on CHO-hCD28 cells
T5 construct: also called hu CD28; CHO-hCD28

[6] = molecular target: T2, biotinylated huCD28-Fc (dimeric CD28-Fc …); assay: SPR, ProteOn XPR36, huCD28-Fc on NLC chip, bispecific as analyte
[7] = molecular target: T5, human CD28 on CHO cells (parental cell …); assay: binding to CHO cells expressing human CD28 (by the table's title)
[8] = molecular target: human FAP on 3T3-huFAP cells (clone 19) (human, UniProt Q12884 1-760); assay: flow cytometry on 3T3-huFAP cells, FAP-CD28 1+1 constructs, MFI (PE)
[9] = molecular target: T5, human CD28 on CHO cells (parental cell …); assay: flow cytometry on CHO cells stably expressing human CD28, FAP-CD28 1+1 constructs, MFI (PE)

EC50 [1]: 20.4 nM
Kd [2]: 10 nM
koff [2]: 0.00264 s⁻¹
kon [2]: 259000 M⁻¹ s⁻¹
B1: CEA (A5H1EL1D)-CD28 (SA_Variant 15) 1+1 format (Molecule 11C) (bispecific antibody, human IgG1, kappa, L234A L235A)
heavy 1: EIVLTQSPATLSLSPGERATLSCRASSSVTYIHWYQQKPGQAPRSWIYATSNLASGIPARFSGSGSGTDFTLTISSLEPEDFAVYYCQHWSSKPPTFGQGTKLEIKSSASTKGPSVFPLAPSSKSTSGGTAALGCLVKDYFPEPVTVSWNSGALTSGVHTFPAVLQSSGLYSLSSVVTVPSSSLGTQTYICNVNHKPSNTKVDKKVEPKSCDKTHTCPPCPAPEAAGGPSVFLFPPKPKDTLMISRTPEVTCVVVDVSHEDPEVKFNWYVDGVEVHNAKTKPREEQYNSTYRVVSVLTVLHQDWLNGKEYKCKVSNKALGAPIEKTISKAKGQPREPQVCTLPPSRDELTKNQVSLSCAVKGFYPSDIAVEWESNGQPENNYKTTPPVLDSDGSFFLVSKLTVDKSRWQQGNVFSCSVMHEALHNHYTQKSLSLSP
light 1: EVQLLESGGGLVQPGGSLRLSCAASGFTFTDYYMNWVRQAPGKGLEWLGFIGNKANAYTTEYSASVKGRFTISRDKSKNTLYLQMNSLRAEDTATYYCTRDRGLRFYFDYWGQGTTVTVSSASVAAPSVFIFPPSDEQLKSGTASVVCLLNNFYPREAKVQWKVDNALQSGNSQESVTEQDSKDSTYSLSSTLTLSKADYEKHKVYACEVTHQGLSSPVTKSFNRGEC
heavy 2: not shown
light 2: not shown
notes: huIgG1 PG-LALA CrossFab; also called P1AE4775

Kd [3]: 0.29 nM
B2: CEA-CD28(SA) 1+1 format (Molecule M) (bispecific antibody, human IgG1, kappa, L234A L235A)
heavy 1: not shown
light 1: not shown
heavy 2: QAVLTQPASLSASPGASASLTCTLRRGINVGAYSIYWYQQKPGSPPQYLLRYKSDSDKQQGSGVSSRFSASKDASANAGILLISGLQSEDEADYYCMIWHSGASAVFGGGTKLTVLSSASTKGPSVFPLAPSSKSTSGGTAALGCLVKDYFPEPVTVSWNSGALTSGVHTFPAVLQSSGLYSLSSVVTVPSSSLGTQTYICNVNHKPSNTKVDKKVEPKSCDKTHTCPPCPAPEAAGGPSVFLFPPKPKDTLMISRTPEVTCVVVDVSHEDPEVKFNWYVDGVEVHNAKTKPREEQYNSTYRVVSVLTVLHQDWLNGKEYKCKVSNKALGAPIEKTISKAKGQPREPQVCTLPPSRDELTKNQVSLSCAVKGFYPSDIAVEWESNGQPENNYKTTPPVLDSDGSFFLVSKLTVDKSRWQQGNVFSCSVMHEALHNHYTQKSLSLSP
light 2: EVQLVESGGGLVQPGRSLRLSCAASGFTVSSYWMHWVRQAPGKGLEWVGFIRNKANGGTTEYAASVKGRFTISRDDSKNTLYLQMNSLRAEDTAVYYCARDRGLRFYFDYWGQGTTVTVSSASVAAPSVFIFPPSDEQLKSGTASVVCLLNNFYPREAKVQWKVDNALQSGNSQESVTEQDSKDSTYSLSSTLTLSKADYEKHKVYACEVTHQGLSSPVTKSFNRGEC
notes: huIgG1 PG-LALA CrossFab, knob-into-hole; also called P1AE3127; anti-CEA (Medi-565) / anti-CD28 (TGN1412)

EC50 [4]: 3.96 nM
EC50 [5]: 9.9 nM
B3: anti-BCMA-CD28 (SA_Variant 15) 1+1 format (Molecule 16D) (bispecific antibody, human IgG1, kappa, L234A L235A)
heavy 1: not shown
light 1: QVQLVQSGAEVKKPGASVKVSCKASGYTFTSYYIHWVRQAPGQGLEWIGSIYPGNVQTNYNEKFKDRATLTVDTSISTAYMELSRLRSDDTAVYFCTRSHYGLDWNFDVWGQGTTVTVSSASVAAPSVFIFPPSDEQLKSGTASVVCLLNNFYPREAKVQWKVDNALQSGNSQESVTEQDSKDSTYSLSSTLTLSKADYEKHKVYACEVTHQGLSSPVTKSFNRGEC
heavy 2: EVQLLESGGGLVQPGGSLRLSCAASGFTFSSYAMNWVRQAPGKGLEWVSAITASGGSTYYADSVKGRFTISRDNSKNTLYLQMNSLRAEDTAVYYCARYWPMSLWGQGTLVTVSSASTKGPSVFPLAPSSKSTSGGTAALGCLVEDYFPEPVTVSWNSGALTSGVHTFPAVLQSSGLYSLSSVVTVPSSSLGTQTYICNVNHKPSNTKVDEKVEPKSCDKTHTCPPCPAPEAAGGPSVFLFPPKPKDTLMISRTPEVTCVVVDVSHEDPEVKFNWYVDGVEVHNAKTKPREEQYNSTYRVVSVLTVLHQDWLNGKEYKCKVSNKALGAPIEKTISKAKGQPREPQVCTLPPSRDELTKNQVSLSCAVKGFYPSDIAVEWESNGQPENNYKTTPPVLDSDGSFFLVSKLTVDKSRWQQGNVFSCSVMHEALHNHYTQKSLSLSP
light 2: EIVLTQSPGTLSLSPGERATLSCRASQSVSAYYLAWYQQKPGQAPRLLMYDASIRATGIPDRFSGSGSGTDFTLTISRLEPEDFAVYYCQQYERWPLTFGQGTKVEIKRTVAAPSVFIFPPSDRKLKSGTASVVCLLNNFYPREAKVQWKVDNALQSGNSQESVTEQDSKDSTYSLSSTLTLSKADYEKHKVYACEVTHQGLSSPVTKSFNRGEC
notes: huIgG1 PG-LALA CrossFab; also called P1AE9053

Kd [6]: 5.4 nM
koff [6]: 0.00121 s⁻¹
kon [6]: 227000 M⁻¹ s⁻¹
Kd [7]: 5.4 nM
binding result [8]: binds
EC50 (read off the curve) [9]: ~3 nM
B4: FAP (4B9) - CD28 (CD28(SA)_Variant 27) 1+1 (bispecific antibody, human IgG1, kappa, L234A L235A)
heavy 1: EIVLTQSPGTLSLSPGERATLSCRASQSVTSSYLAWYQQKPGQAPRLLINVGSRRATGIPDRFSGSGSGTDFTLTISRLEPEDFAVYYCQQGIMLPPTFGQGTKVEIKSSASTKGPSVFPLAPSSKSTSGGTAALGCLVKDYFPEPVTVSWNSGALTSGVHTFPAVLQSSGLYSLSSVVTVPSSSLGTQTYICNVNHKPSNTKVDKKVEPKSCDKTHTCPPCPAPEAAGGPSVFLFPPKPKDTLMISRTPEVTCVVVDVSHEDPEVKFNWYVDGVEVHNAKTKPREEQYNSTYRVVSVLTVLHQDWLNGKEYKCKVSNKALGAPIEKTISKAKGQPREPQVCTLPPSRDELTKNQVSLSCAVKGFYPSDIAVEWESNGQPENNYKTTPPVLDSDGSFFLVSKLTVDKSRWQQGNVFSCSVMHEALHNHYTQKSLSLSP
light 1: EVQLLESGGGLVQPGGSLRLSCAASGFTFSSYAMSWVRQAPGKGLEWVSAIIGSGASTYYADSVKGRFTISRDNSKNTLYLQMNSLRAEDTAVYYCAKGWFGGFNYWGQGTLVTVSSASVAAPSVFIFPPSDEQLKSGTASVVCLLNNFYPREAKVQWKVDNALQSGNSQESVTEQDSKDSTYSLSSTLTLSKADYEKHKVYACEVTHQGLSSPVTKSFNRGEC
heavy 2: not shown
light 2: not shown
notes: huIgG1 PG-LALA CrossFab 1+1; also called P1AE3140
